B1: Calcium-binding and coiled-coil domain-containing protein 2 (Homo sapiens), Q13137 (parent)
chain: MEETIKDPPTSAVLLDHCHFSQVIFNSVEKFYIPGGDVTCHYTFTQHFIPRRKDWIGIFRVGWKTTREYYTFMWVTLPIDLNNKSAKQQEVQFKAYYLPKDDEYYQFCYVDEDGVVRGASIPFQFRPENEEDILVVTTQGEVEEIEQHNKELCKENQELKDSCISLQKQNSDMQAELQKKQEELETLQSINKKLELKVKEQKDYWETELLQLKEQNQKMSSENEKMGIRVDQLQAQLSTQEKEMEKLVQGDQDKTEQLEQLKKENDHLFLSLTEQRKDQKKLEQTVEQMKQNETTAMKKQQELMDENFDLSKRLSENEIICNALQRQKERLEGENDLLKRENSRLLSYMGLDFNSLPYQVPTSDEGGARQNPGLAYGNPYSGIQESSSPSPLSIKKCPICKADDICDHTLEQQQMQPLCFNCPICDKIFPATEKQIFEDHVFCHSL
partner: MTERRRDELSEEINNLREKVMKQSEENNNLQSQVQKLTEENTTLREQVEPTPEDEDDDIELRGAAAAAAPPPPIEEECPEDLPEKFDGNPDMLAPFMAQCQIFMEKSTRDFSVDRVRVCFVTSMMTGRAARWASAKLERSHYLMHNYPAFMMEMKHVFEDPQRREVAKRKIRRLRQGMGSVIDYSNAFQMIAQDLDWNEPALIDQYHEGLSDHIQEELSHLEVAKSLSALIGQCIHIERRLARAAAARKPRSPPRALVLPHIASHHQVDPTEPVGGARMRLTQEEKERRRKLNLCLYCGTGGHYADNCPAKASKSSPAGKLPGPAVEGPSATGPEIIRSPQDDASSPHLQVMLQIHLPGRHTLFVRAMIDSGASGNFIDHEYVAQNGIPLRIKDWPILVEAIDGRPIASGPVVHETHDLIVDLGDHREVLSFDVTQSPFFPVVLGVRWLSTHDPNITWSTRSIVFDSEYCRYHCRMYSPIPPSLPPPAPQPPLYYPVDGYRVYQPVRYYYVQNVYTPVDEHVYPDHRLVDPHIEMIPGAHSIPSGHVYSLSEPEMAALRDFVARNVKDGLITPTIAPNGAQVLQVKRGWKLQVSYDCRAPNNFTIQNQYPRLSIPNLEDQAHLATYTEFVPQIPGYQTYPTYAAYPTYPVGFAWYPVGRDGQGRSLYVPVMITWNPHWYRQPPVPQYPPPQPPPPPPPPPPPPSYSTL
B2: Inactive peptidyl-prolyl cis-trans isomerase FKBP6 (Homo sapiens), O75344 (parent)
chain: MGGSALNQGVLEGDDAPGQSLYERLSQRMLDISGDRGVLKDVIREGAGDLVAPDASVLVKYSGYLEHMDRPFDSNYFRKTPRLMKLGEDITLWGMELGLLSMRRGELARFLFKPNYAYGTLGCPPLIPPNTTVLFEIELLDFLDCAESDKFCALSAEQQDQFPLQKVLKVAATEREFGNYLFRQNRFYDAKVRYKRALLLLRRRSAPPEEQHLVEAAKLPVLLNLSFTYLKLDRPTIALCYGEQALIIDQKNAKALFRCGQACLLLTEYQKARDFLVRAQKEQPFNHDINNELKKLASCYRDYVDKEKEMWHRMFAPCGDGSTAGES
partner: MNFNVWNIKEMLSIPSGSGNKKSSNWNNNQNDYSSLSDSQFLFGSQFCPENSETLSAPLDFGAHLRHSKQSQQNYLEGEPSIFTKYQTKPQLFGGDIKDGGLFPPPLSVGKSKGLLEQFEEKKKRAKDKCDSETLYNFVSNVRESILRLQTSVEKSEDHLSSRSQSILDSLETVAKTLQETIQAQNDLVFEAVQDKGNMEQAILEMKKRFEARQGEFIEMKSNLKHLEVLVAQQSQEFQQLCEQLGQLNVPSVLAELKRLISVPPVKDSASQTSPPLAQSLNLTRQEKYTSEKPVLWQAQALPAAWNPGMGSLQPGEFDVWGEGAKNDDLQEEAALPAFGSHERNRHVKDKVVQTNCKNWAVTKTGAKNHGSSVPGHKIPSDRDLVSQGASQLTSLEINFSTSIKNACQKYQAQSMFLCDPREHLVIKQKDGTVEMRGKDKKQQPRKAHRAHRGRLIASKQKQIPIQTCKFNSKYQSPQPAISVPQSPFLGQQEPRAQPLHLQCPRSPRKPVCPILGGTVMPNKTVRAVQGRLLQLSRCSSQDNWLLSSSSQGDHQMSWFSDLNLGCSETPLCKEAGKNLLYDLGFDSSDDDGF
B3: Notch homolog 2 N-terminal-like protein A (Homo sapiens), Q7Z3S9 (parent)
chain: MCVTYHNGTGYCKCPEGFLGEYCQHRDPCEKNRCQNGGTCVAQAMLGKATCRCASGFTGEDCQYSTSHPCFVSRPCLNGGTCHMLSRDTYECTCQVGFTGKECQWTDACLSHPCANGSTCTTVANQFSCKCLTGFTGQKCETDVNECDIPGHCQHGGTCLNLPGSYQCQCLQGFTGQYCDSLYVPCAPSPCVNGGTCRQTGDFTFECNCLPETVRRGTELWERDREVWNGKEHDEN
partner: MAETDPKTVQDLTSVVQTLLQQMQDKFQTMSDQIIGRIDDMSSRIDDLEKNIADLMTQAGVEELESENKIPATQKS
B4: Microtubule-associated tumor suppressor candidate 2 (Homo sapiens), Q5JR59-3 (parent)
chain: MGHCCCKPYNCLQCLDKTNESALVKEKELSIELANIRDEVAFHTAKCEKLQKEKEELERRFEDEVKRLGWQQQAELQELEERLQLQFEAEMARLQEEHGDQLLSIRCQHQEQVEDLTASHDAALLEMENNHTVAITILQDDHDHKVQELMSTHELEKKELEENFEKLRLSLQDQVDTLTFQSQSLRDRARRFEEALRKNTEEQLEIALAPYQHLEEDMKSLKQVLEMKNQQIHEQEKKILELEKLAEKNIILEEKIQVLQQQNEDLKARIDQNTVVTRQLSEENANLQEYVEKETQEKKRLSRTNEELLWKLQTGDPTSPIKLSPTSPVYRGSSSGPSSPARVSTTPR
partner: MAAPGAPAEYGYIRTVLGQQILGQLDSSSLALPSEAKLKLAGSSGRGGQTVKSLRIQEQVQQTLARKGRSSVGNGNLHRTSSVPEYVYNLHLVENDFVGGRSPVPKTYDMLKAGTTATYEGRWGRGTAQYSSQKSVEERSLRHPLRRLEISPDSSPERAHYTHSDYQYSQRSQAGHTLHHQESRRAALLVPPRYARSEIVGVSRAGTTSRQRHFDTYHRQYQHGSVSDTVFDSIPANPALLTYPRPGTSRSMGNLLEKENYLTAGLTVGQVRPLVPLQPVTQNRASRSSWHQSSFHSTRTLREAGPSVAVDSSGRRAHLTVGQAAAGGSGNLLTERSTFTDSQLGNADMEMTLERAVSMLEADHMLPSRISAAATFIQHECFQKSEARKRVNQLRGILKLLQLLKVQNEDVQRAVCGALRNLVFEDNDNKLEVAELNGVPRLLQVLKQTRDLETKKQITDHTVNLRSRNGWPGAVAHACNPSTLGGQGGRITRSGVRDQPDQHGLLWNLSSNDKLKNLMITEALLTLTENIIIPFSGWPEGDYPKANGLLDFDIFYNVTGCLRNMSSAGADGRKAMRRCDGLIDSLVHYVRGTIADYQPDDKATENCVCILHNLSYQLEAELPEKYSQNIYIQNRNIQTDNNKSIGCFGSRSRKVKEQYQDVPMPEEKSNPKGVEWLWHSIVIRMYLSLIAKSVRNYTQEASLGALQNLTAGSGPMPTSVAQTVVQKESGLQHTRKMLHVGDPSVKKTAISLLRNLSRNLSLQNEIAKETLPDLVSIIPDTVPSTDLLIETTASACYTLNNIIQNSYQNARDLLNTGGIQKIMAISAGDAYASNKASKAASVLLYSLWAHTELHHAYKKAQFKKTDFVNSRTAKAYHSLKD
B5: Bcl-2-interacting killer (Homo sapiens), Q13323 (parent)
chain: MSEVRPLSRDILMETLLYEQLLEPPTMEVLGMTDSEEDLDPMEDFDSLECMEGSDALALRLACIGDEMDVSLRAPRLAQLSEVAMHSLGLAFIYDQTEDIRDVLRSFMDGFTTLKENIMRFWRSPNPGSWVSCEQVLLALLLLLALLLPLLSGGLHLLLK
partner: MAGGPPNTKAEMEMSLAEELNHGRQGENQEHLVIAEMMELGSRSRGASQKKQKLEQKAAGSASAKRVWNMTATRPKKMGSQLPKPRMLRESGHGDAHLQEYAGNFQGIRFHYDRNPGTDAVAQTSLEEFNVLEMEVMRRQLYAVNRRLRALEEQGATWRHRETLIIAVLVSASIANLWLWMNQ
B6: Aflatoxin B1 aldehyde reductase member 2 (Homo sapiens), O43488 (parent)
chain: MLSAASRVVSRAAVHCALRSPPPEARALAMSRPPPPRVASVLGTMEMGRRMDAPASAAAVRAFLERGHTELDTAFMYSDGQSETILGGLGLGLGGGDCRVKIATKANPWDGKSLKPDSVRSQLETSLKRLQCPQVDLFYLHAPDHGTPVEETLHACQRLHQEGKFVELGLSNYASWEVAEICTLCKSNGWILPTVYQGMYNATTRQVETELFPCLRHFGLRFYAYNPLAGGLLTGKYKYEDKDGKQPVGRFFGNSWAETYRNRFWKEHHFEAIALVEKALQAAYGASAPSVTSAALRWMYHHSQLQGAHGDAVILGMSSLEQLEQNLAATEEGPLEPAVVDAFNQAWHLVAHECPNYFR
B7: UPF0688 protein C1orf174 (Homo sapiens), Q8IYL3 (parent)
chain: MRSRKLTGAVRSSARLKARSCSAARLASAQEVAGSTSAKTACLTSSSHKATDTRTSKKFKCDKGHLVKSELQKLVPKNDSASLPKVTPETPCENEFAEGSALLPGSEAGVSVQQGAASLPLGGCRVVSDSRLAKTRDGLSVPKHSAGSGAEESNSSSTVQKQNEPGLQTEDVQKPPLQMDNSVFLDDDSNQPMPVSRFFGNVELMQDLPPASSSCPSMSRREFRKMHFRAKDDDDDDDDDAEM

Variants of: B1
Conditions: with peg10_human PEG10, Q86TG7

Variant | effect of a mutation on the interaction
P389A | with no effect
T273A | with no effect

Variants of: B2
Conditions: with iho1_human IHO1, Q8IYA8

Variant | effect of a mutation on the interaction
H287N | with no effect
R175Q | with no effect

Variants of: B3
Conditions: with hsbp1_human HSBP1, O75506

Variant | effect of a mutation on the interaction
A115T | with no effect
R74Q | with no effect

Variants of: B4
Conditions: with pkp2_human PKP2, Q99959

Variant | effect of a mutation on the interaction
A89V | with no effect

Variants of: B5
Conditions: with fate1_human FATE1, Q969F0

Variant | effect of a mutation on the interaction
D69E | with no effect

Variants of: B6
Conditions: with ark73_human AKR7A3, O95154
Sequence of ark73_human AKR7A3, O95154 (O95154 whole entry): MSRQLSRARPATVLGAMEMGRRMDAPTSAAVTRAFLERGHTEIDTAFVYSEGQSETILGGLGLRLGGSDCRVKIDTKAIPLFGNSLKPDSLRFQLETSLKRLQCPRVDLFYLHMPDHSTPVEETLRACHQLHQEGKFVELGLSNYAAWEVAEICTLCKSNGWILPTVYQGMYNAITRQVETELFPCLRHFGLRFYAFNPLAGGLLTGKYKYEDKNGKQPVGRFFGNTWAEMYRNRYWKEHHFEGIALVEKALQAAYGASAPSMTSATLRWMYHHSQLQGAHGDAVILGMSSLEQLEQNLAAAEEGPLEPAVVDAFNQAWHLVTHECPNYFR

Variant | effect of a mutation on the interaction
A142T | disrupting interaction strength

Variants of: B6
Conditions: with cep70_human CEP70, Q8NHQ1
Sequence of cep70_human CEP70, Q8NHQ1 (Q8NHQ1 whole entry): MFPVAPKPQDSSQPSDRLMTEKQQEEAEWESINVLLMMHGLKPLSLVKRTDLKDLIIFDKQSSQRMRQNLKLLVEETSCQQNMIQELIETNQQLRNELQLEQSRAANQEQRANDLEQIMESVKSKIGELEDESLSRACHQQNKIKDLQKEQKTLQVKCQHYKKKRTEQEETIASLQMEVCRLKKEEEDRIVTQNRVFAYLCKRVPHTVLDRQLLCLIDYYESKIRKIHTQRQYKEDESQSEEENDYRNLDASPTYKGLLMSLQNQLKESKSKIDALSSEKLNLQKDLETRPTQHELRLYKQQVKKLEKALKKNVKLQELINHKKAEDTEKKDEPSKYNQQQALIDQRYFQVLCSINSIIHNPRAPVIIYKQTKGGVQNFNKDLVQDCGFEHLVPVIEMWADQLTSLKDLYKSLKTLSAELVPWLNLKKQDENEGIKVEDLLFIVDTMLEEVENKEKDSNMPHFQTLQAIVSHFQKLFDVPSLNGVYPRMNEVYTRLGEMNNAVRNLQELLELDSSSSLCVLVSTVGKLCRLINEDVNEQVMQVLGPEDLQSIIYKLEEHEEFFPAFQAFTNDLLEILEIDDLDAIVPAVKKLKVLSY

Variant | effect of a mutation on the interaction
A142T | disrupting interaction strength

Variants of: B7
Conditions: with ikzf1_human IKZF1, Q13422
Sequence of ikzf1_human IKZF1, Q13422 (Q13422 whole entry): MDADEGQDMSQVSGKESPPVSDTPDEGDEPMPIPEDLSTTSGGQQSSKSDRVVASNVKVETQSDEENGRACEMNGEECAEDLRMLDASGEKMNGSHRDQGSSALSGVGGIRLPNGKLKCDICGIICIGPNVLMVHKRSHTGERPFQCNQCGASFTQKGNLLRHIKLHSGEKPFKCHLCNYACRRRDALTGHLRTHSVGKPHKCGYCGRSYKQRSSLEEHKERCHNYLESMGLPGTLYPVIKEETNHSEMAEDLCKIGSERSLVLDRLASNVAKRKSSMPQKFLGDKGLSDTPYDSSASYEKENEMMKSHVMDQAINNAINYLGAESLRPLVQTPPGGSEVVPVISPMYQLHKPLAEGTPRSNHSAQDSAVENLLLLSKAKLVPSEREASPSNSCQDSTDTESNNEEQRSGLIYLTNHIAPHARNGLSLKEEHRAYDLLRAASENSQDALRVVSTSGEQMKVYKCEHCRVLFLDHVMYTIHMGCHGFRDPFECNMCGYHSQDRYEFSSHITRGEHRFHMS

Variant | effect of a mutation on the interaction
A81T | with no effect
R131C | with no effect

Reference: IntAct's records for PubMed 31515488
